One molecule from paper PMC3387016, “Proteomic Identification of Calumenin as a G551D - CFTR Associated Protein” (PLoS ONE, 2012) can be followed below.

Usually Kd stands for the concentration at which binding is half-saturated. A higher Kd goes with weaker binding.

This test addresses T1, purified full length CFTR (UniProt P13569 1-1480).
T1 construct: cystic fibrosis transmembrane conductance regulator, full length, called Wt-CFTR in the SPR methods; also called pure CFTR; Wt-CFTR; source: purified, gift from Pr Robert Ford (University of Manchester, UK)
Briefly: SPR; Biacore 3000, calumenin amine-coupled to a CM5 chip (about 2000 RU), CFTR injected at 0.15 to 1.5 nM, 5 µl/min, HBS-EP pH 7.4, 25°C, triplicate. The settings on record: both partners purified. A general note: In SPR one partner is held on a chip, and binding of the other changes the refractive index at the surface.

T1 sequence (P13569 whole entry): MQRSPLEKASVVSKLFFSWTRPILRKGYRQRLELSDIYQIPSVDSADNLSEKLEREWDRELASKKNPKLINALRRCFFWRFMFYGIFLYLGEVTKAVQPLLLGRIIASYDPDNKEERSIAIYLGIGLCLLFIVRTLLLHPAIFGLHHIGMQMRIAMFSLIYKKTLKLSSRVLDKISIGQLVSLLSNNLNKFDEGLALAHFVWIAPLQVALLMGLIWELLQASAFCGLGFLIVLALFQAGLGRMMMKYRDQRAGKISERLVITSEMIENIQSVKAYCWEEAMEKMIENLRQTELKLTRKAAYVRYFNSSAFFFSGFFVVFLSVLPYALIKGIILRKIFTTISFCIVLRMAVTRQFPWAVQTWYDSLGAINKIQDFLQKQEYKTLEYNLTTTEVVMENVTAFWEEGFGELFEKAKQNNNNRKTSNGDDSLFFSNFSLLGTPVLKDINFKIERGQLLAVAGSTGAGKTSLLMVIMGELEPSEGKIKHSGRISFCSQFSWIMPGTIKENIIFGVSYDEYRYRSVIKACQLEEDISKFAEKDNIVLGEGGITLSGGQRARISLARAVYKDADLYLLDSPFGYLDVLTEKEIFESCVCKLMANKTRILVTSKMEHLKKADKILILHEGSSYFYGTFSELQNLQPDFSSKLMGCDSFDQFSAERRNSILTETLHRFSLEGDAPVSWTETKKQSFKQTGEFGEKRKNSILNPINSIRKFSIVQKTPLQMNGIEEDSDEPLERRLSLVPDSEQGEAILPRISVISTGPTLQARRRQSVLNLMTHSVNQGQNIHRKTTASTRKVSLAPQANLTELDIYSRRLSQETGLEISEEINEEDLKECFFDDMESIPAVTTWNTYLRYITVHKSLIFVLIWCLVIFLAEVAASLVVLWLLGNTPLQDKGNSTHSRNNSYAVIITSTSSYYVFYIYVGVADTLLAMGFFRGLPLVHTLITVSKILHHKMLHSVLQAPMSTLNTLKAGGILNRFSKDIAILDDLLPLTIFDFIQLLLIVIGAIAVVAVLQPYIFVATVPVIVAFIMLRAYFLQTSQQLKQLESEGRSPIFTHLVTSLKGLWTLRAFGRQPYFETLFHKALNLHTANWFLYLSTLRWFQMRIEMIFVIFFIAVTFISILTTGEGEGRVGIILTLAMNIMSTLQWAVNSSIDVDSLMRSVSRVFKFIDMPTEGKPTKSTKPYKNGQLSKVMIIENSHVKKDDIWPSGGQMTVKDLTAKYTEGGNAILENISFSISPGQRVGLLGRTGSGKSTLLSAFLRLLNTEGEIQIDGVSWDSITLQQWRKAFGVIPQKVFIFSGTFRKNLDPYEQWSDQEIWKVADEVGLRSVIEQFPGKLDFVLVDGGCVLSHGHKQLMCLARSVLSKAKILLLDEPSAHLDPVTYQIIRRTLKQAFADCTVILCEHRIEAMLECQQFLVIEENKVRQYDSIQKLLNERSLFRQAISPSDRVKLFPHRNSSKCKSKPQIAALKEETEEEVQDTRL

B1: Pure recombinant human calumenin (natural protein, UniProt O43852 20-315, looked up)
chain: KPTEKKDRVHHEPQLSDKVHNDAQSFDYDHDAFLGAEEAKTFDQLTPEESKERLGKIVSKIDGDKDGFVTVDELKDWIKFAQKRWIYEDVERQWKGHDLNEDGLVSWEEYKNATYGYVLDDPDPDDGFNYKQMMVRDERRFKMADKDGDLIATKEEFTAFLHPEEYDYMKDIVVQETMEDIDKNADGFIDLEEYIGDMYSHDGNTDEPEWVKTEREQFVEFRDKNRDGKMDKEETKDWILPSDYDHAEAEARHLVYESDQNKDGKLTKEEIVDKYDLFVGSQATDFGEALVRHDEF
notes: calumenin, human, recombinant; No catalogue number, host, limits or tag are printed; also called pure calumenin; source: bought: Prospec (Israel)
With B1, the Kd worked out at 3.8 pM.
